Data reported in patent US20180148474A1 (KOREA UNIVERSITY RESEARCH AND BUSINESS FOUNDATION SEJONG …, published 2018).

Molecular target: thymic stromal lymphopoietin (TSLP)
Experiment: cell-based or functional assay

thymic stromal lymphopoietin (TSLP), sequence (Q969D9 29-159): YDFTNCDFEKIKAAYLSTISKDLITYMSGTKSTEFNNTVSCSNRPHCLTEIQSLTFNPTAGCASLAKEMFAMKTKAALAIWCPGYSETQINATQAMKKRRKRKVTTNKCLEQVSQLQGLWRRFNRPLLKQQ

Binder | Degrees of phosphorylation of STAT5 molecules in cells (%), 0.3 µM peptide mixed with TSLP 100 ng/mL, HMC-1 cells, flow cytometry; control with TSLP alone = 100% [%] | Degrees of phosphorylation of STAT5 molecules in cells (%), 3 µM peptide mixed with TSLP 100 ng/mL, HMC-1 cells, flow cytometry; control with TSLP alone = 100% [%] | Degrees of phosphorylation of STAT5 molecules in cells (%), 30 µM peptide mixed with TSLP 100 ng/mL, HMC-1 cells, flow cytometry; control with TSLP alone = 100% [%]
Ac-ARQRASA-OH [Compound 5 (peptide derivative of Formula 5): CH3CONH-Ala-Arg-Gln-Arg-Ala-Ser-Ala-COOH] | 86.1 | 84.6 | 77.1
H-RQRASA-OH [Compound 2 (peptide derivative of Formula 2): H2N-Arg-Gln-Arg-Ala-Ser-Ala-COOH] | 84.4 | 77.9 | 69.8
H-ARQRASA-OH [Compound 4 (peptide derivative of Formula 4): H2N-Ala-Arg-Gln-Arg-Ala-Ser-Ala-COOH] | 71 | 68.3 | 70.9
Ac-RQRASA-OH [Compound 3 (peptide derivative of Formula 3): CH3CONH-Arg-Gln-Arg-Ala-Ser-Ala-COOH] | 73.5 | 67.8 | 66.9
